Among the data in article doi:10.1101/2020.05.02.074187 (bioRxiv, 2020) are koff values, retold here.

As a reminder, the koff is the first-order rate constant of dissociation.

Like-named read-outs stand apart in the source and are kept apart here.

Common to all, as to test: single-molecule AFM dynamic force spectroscopy
Experiment [1] concerns the target T1, E-cadherin endogenously expressed on the apical surface of MDCK cells (canine (endogenous in MDCK), UniProt F1PAA9 157-885).
T1 sequence (looked up): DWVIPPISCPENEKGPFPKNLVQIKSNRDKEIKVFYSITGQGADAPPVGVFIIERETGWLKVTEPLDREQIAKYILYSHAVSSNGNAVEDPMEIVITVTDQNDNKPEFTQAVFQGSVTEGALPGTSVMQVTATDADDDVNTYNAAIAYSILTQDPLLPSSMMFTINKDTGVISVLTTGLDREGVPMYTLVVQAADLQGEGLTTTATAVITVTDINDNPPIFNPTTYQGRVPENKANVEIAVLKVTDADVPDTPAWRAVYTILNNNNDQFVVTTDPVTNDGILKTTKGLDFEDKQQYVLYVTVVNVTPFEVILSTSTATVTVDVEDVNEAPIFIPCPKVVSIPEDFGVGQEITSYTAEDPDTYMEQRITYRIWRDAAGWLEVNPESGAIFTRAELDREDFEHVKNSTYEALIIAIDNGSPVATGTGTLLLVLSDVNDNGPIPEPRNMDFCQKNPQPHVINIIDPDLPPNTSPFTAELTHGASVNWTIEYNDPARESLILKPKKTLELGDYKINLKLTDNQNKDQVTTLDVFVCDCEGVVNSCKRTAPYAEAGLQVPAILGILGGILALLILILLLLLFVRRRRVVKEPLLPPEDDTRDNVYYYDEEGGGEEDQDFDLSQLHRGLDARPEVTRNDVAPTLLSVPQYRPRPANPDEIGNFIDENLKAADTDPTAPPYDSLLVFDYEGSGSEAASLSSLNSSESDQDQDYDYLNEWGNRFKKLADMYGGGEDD

Experiment [2] addresses T1, E-cadherin endogenously expressed on …. The source holds these as a separate data set.
Experiment [3] shares this target. The source holds these as a separate data set.

B1: recombinant E-cadherin extracellular region, biotinylated monomer with C-terminal Avi tag (domain or fragment, UniProt F1PAA9 157-712, looked up)
chain: DWVIPPISCPENEKGPFPKNLVQIKSNRDKEIKVFYSITGQGADAPPVGVFIIERETGWLKVTEPLDREQIAKYILYSHAVSSNGNAVEDPMEIVITVTDQNDNKPEFTQAVFQGSVTEGALPGTSVMQVTATDADDDVNTYNAAIAYSILTQDPLLPSSMMFTINKDTGVISVLTTGLDREGVPMYTLVVQAADLQGEGLTTTATAVITVTDINDNPPIFNPTTYQGRVPENKANVEIAVLKVTDADVPDTPAWRAVYTILNNNNDQFVVTTDPVTNDGILKTTKGLDFEDKQQYVLYVTVVNVTPFEVILSTSTATVTVDVEDVNEAPIFIPCPKVVSIPEDFGVGQEITSYTAEDPDTYMEQRITYRIWRDAAGWLEVNPESGAIFTRAELDREDFEHVKNSTYEALIIAIDNGSPVATGTGTLLLVLSDVNDNGPIPEPRNMDFCQKNPQPHVINIIDPDLPPNTSPFTAELTHGASVNWTIEYNDPARESLILKPKKTLELGDYKINLKLTDNQNKDQVTTLDVFVCDCEGVVNSCKRTAPYAEAGLQVPA
modifications: biotin (biotinylated with BirA enzyme)
As to B1, the koff in experiment [1] is 1.73 s⁻¹; in experiment [2], 1.77 s⁻¹; in experiment [3], 2.37 s⁻¹.
